Laboratory results as given in patent publication US9738880B2, “Lysosomal protein targeting sequence and therapeutic applications of same” (Children's Hospital Medical Center, priority 2013, dated 2017).
Changes are numbered by the printed parent chain. Names may count otherwise. “Also recorded” adds a separate entry of the source.

B1: Human WT: wild type human GCase (acid β-glucosidase, SEQ ID NO 2) expressed in Gba1−/− cells (protein, listed as Homo sapiens)
chain: ARPCIPKSFGYSSVVCVCNATYCDSFDPPTFPALGTFSRYESTRSGRRMELSMGPIQANHTGTGLLLTLQPEQKFQKVKGFGGAMTDAAALNILALSPPAQNLLLKSYFSEEGIGYNIIRVPMASCDFSIRTYTYADTPDDFQLHNFSLPEEDTKLKIPLIHRALQLAQRPVSLLASPWTSPTWLKTNGAVNGKGSLKGQPGDIYHQTWARYFVKFLDAYAEHKLQFWAVTAENEPSAGLLSGYPFQCLGFTPEHQRDFIARDLGPTLANSTHHNVRLLMLDDQRLLLPHWAKVVLTDPEAAKYVHGIAVHWYLDFLAPAKATLGETHRLFPNTMLFASEACVGSKFWEQSVRLGSWDRGMQYSHSIITNLLYHVVGWTDWNLALNPEGGPNWVRNFVDSPIIVDITKDTFYKQPMFYHLGHFSKFIPEGSQRVGLVASQKNDLDAVALMHPDGSAVVVVLNRSSKDVPLTIKDPAVGFLETISPGYSIHTYLWRRQ
B2: AKD: human GCase with TKD (407-409) replaced by AKD, as named in figure legends (protein, UniProt P04062 40-536, looked up, variant T407A)
Lysosomal acid …: B1 chain with T407A
B3: TAD: human GCase with TKD (407-409) replaced by TAD (protein)
chain: B1 chain with K408A
B4: AKA: human GCase with TKD (407-409) replaced by AKA (protein, listed as Homo sapiens)
chain: B1 chain with T407A, D409A
B5: AAA: human GCase with triple alanine substitution of TKD (positions 407-409) (protein, listed as Homo sapiens)
chain: B1 chain with T407A, K408A, D409A
B6: D399E: human GCase variant with charge conserved D399E (ESPIIV, SEQ ID NO 20) (protein)
chain: B1 chain with D399E

Assays:
Gba1−/− cells = test: Proportion of GCase protein in cells and media; type: cell-based, mouse; details: for % Secreted: ng GCase in media / (ng in media + ng in lysates) × 100
Text: (§1) FIG. 11A-FIG. 11C: Secretion and retention of GCase with alanine variants in the TDK (FIG. 11A) or DSPIIV (SEQ ID NO 15) (FIG. 11B and FIG. 11C) sequences. FIG. 11A depicts activities in the media of Gba1−/− fibroblasts following transient transfections of each of the specified alanine substituted GCases in the TDK region. […] FIG. 11B depicts in the Left Panel: Activities in the media following transient transfections of various DSPIIV (SEQ ID NO 15) alanine substituted GCases and the % of GCase secreted. The latter was calculated as {ng GCase (in media)/[ng GCase (in media)+ng (GCase in lysates)]}×100 (also see Table 2). […] The transfections alone (Null+lipo) had no effect. […] FIG. 11C deicts in cellular lysate GCase activities from the various alanine substituted GCases in the DSPIIV (SEQ ID NO 15) sequence as indicated. […] The doubly alanine substituted GCase had little intracellular activity, i.e., nearly all the GCase was secreted into the media.

[1] = tested on: Gba1 null/null mouse fibroblasts; test: Immunofluorescence co-localization of expressed GCase constructs (lysosome vs ER/Golgi); type: cell-based; details: for localization of GCase DSPIIV variants to the lysosome (Lamp1 / LIMP-2 co-localization), in words: transient transfection, FIG. 10A; for co-localization to / retention in the ER/Golgi, in words: calnexin or calreticulin
Text: Immunofluorescence studies (IF): Mouse Gba1 null/null were used for the host cells for all transfection experiments. pCMV-AC-GFP Mammalian cell expression vector was used for expression of various GCases that included the TKD region (amino acids 407, 408 and 409) or the DSPIIV (SEQ ID NO 15) region (amino acids 399-404). Direct-labeled first antibodies were applied for IF detection; including anti-human GCase, -Calreticulin, -calnexin, -LIMP2, and -Lamp1. Lysotracker and ER tracker (Invitrogen) were also used as indicated. Analyses were done with a Zeiss AxioVert 200M with ApoTome. Co-localization analyses to obtain Pearson Indices were conducted using a module in the Axiovision 4.8 software.
Initial studies to localize the targeting peptide were conducted with GCase-GFP fusion constructs that had COOH-terminal deletions of GCase (FIG. 1). The constructs are designated as GCase-XX or XXX where the Xs represent the number of GCase amino acids deleted from the COOH-terminus. These constructs were transfected into and expressed in Gba1 null/null mouse fibroblasts using the CMV promoter (pCMV-AC-GFP or YFP) Immunofluorescence analyses using anti-human GCase IgG (green) and Lysotracker (Red) were used for colocalization of GCase to the lysosome (Red) or GCase (green) and Calreticulin or Calnexin (Red) for colocalization to the ER or Golgi (FIG. 2). […] Since LIMP-2 is the receptor for targeting of GCase to the lysosome, our working hypothesis was that the peptide sequence for binding of GCase to LIMP-2 was located within amino acids 347-422.

ldLIMP2 = target: T1, ldLIMP2 (Homo sapiens, UniProt Q14108); test: Immunoprecipitation of alanine substituted GCases (TKD sequence) with ldLIMP2; type: binding; details: for binding of GCase variant to ldLIMP2, in words: GCase:LIMP2 1:1, immunoblot, FIG. 6
T1 construct: Purified luminal domain LIMP-2 (1d-LIMP2) was custom made (Sino Biological Inc., PRC.); purchased Sino Biological Inc
T1 sequence (Q14108 28-433 limits assumed): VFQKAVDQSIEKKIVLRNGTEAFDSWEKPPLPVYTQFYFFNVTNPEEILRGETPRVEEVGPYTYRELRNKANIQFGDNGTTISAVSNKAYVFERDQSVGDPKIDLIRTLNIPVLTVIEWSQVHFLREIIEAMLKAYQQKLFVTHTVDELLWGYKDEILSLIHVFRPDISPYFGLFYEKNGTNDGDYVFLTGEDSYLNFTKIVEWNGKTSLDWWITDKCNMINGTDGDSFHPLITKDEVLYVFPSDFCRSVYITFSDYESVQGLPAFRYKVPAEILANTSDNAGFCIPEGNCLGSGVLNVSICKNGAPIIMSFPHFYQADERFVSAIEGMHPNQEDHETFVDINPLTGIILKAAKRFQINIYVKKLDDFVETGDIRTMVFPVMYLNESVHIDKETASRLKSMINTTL
Text: FIG. 6A-6E: Immunoprecipitation of the alanine substituted GCases in the TKD sequence with ldLIMP2. In panels shown in FIG. 6A to FIG. 6D, the lanes 1 through 6 correspond to the band densities indicated by the bars in FIG. 6E. […] The quantitative results are shown in (FIG. 6E) in which 1, 2, 3, and 4 correspond to WT, AAA, AKA, and AKD, respectively.
Immunoprecipitation of GCases with mutations in the TKD sequence: For immunoblots, Gba1 knockout mouse fibroblasts (null/null) were transfected with the GBA1 constructs (WT or mutants) and expressed for 5 days. The GCases from harvested cell lysates were purified using a GCase antibody affinity column (Dynabeads protein G crosslinked (BS3) with rabbit anti-human GCase antibody). The purified GCases were then mixed with LIMP2 (1:1), incubated (30 min.), and applied to another affinity column (Dynabeads protein G crosslinked (BS3) with rabbit anti-LIMP2 antibody). Aliquots of each step (loading, wash and eluent) were collected and analyzed on 12.5% SDS gels. Immunoblots were developed using anti-human GCase antibody and AP conjugated color development kits. Mock experiments with either non-LIMP2 proteins added or no GCases added, were used as control. The quantitations of these immunoprecipitation data were obtained from densitometry measurements of the gels. The no-LIMP-2 bars are the controls for comparison, since GCase was processed through all steps without LIMP-2 to account for any losses of GCase; About 50% of the GCase was lost during processing.

Gba1−/− fibroblasts = test: GCase activity in media and cell lysates after transient transfection (secretion and retention); type: cell-based, mouse
Text: as §1
(§2) Enzyme Assays: Cell pellets were homogenized in 0.25% Na-taurocholate and 0.25% Triton X-100. GCase activities were determined fluorometrically with 4 mM 4MU-Glc in 0.2M/0.1M citric-phosphate, pH 5.6 (18, 54)

[2] = CRIM specific activity of GCase variants (activity per cross-reacting immunological material); type: biochemical; details: for CRIM specific activity relative to WT (assigned 100%): FIG. 11A, 11B right panels
Experimental: as §2
Corresponding effects on the secretion of GCases from the cells containing various mutations in DSPIIVDITDK were found by assessing the activity of GCases in the media and cell lysate (FIG. 11 A-C). […] Using this assessment, the ratio of CRIM specific activities relative to WT (assigned 100%) for AAA, TAD, and AKA were 20%, 32%, and 49%, respectively (FIG. 11A, right panel), or that more GCase protein was required from the respective mutants to achieve the same enzyme activity as the WT. […] For the other mutants this ranged from 22-36%. This compares to ˜0% for the WT or D399E GCases Immunoaffinity anti-GCase column purification of the various GCases from media confirmed the excesses of these mutant GCases and the inability to detect WT or D399E GCases in media (data not shown).

Molecule	% Secreted (Gba1−/− cells) [%]	GCase activity in the media / secretion, in words (Gba1−/− fibroblasts; media, FIG. 11A, 11B)	binding of GCase variant to ldLIMP2, in words (ldLIMP2)	CRIM specific activity relative to WT (assigned 100%) [2] [%]	lysosomal localization of GCases with alanine substitutions in the TKD sequence, in words ([1]; FIG. 5)	co-localization to / retention in the ER/Golgi, in words [1]	further results
B1	~0	–	–	–	–	–	Total GCase (Gba1−/− cells; cellular + media, mean ± SD, n = 3): 23 ± 4 ng; Cellular GCase (Gba1−/− cells; total ng, mean ± SD, n = 3): 23 ± 4 ng; Media GCase (Gba1−/− cells; total ng, mean ± SD, n = 3): 0 ng; localization of GCase DSPIIV variants to the lysosome (Lamp1 / LIMP-2 co-localization), in words ([1]; listed as WT): targeted to the lysosomes; also recorded: co-localization of GCase (FITC) with either Lamp 1 (Red) or LIMP-2; binding of GCase variant to ldLIMP2, in words (ldLIMP2; listed as WT): nearly complete binding; also recorded: bound similarly
B2	–	greatest increases	somewhat less binding	–	–	–	enzyme localized to the lysosome ([1]; TKD sequence variants, FIG. 5): about 50%
B3	–	–	bound similarly	32	–	–	increase of GCase activity in the media compared to WT (Gba1−/− fibroblasts; media, transient transfection, FIG. 11A, 11B): ~8 fold
B4	–	–	much less bound	49	less lysosomal localization	majority of the enzymes co-localized to the ER/Golgi	binding of GCase variant to ldLIMP2 (ldLIMP2; GCase on beads vs wash, FIG. 6C): about 50%
B5	–	the least	essentially no binding; also recorded: did not bind	20	no lysosomal localization	majority of the enzymes co-localized to the ER/Golgi; also recorded: abundant colocalization to the ER	–
B6	~0	no media activity above background	–	–	–	–	CRIM specific activity, in words ([2]; FIG. 11B right panel): minor change in CRIM specific activity; GCase activity in cell lysates, in words (Gba1−/− fibroblasts; cell lysates, FIG. 11C): equal intracellular activities; GCase activity in the media / secretion, in words (Gba1−/− fibroblasts; media, FIG. 11A, 11B, listed as E399): did not alter the cellular localization or secretion of GCase; GCase activity in the media / secretion, in words (Gba1−/− fibroblasts; media, FIG. 11A, 11B, listed as ESPIIV): did not alter secretion; Pearson Indices for co-localization to the lysosome, in words ([1]; DSPIIV variants, FIG. 10B): did not alter the co-localization compared to WT; localization of GCase DSPIIV variants to the lysosome (Lamp1 / LIMP-2 co-localization), in words [1]: targeted to the lysosomes; localization of GCase DSPIIV variants to the lysosome (Lamp1 / LIMP-2 co-localization), in words ([1]; listed as E399): did not alter the cellular localization or secretion of GCase; localization of GCase DSPIIV variants to the lysosome (Lamp1 / LIMP-2 co-localization), in words ([1]; listed as ESPIIV): co-localization of GCase (FITC) with either Lamp 1 (Red) or LIMP-2
